Laboratory results reported in the DeepSol protein solubility set.

assay: soluble on expression in E. coli; label from the status in PepcDB or PDB records

Row | Sequence | soluble on expression in E. coli
1 | MGSDKIHHHHHHMKVDYHIHLEEGPYSIGWLAKINESLQHYEPLKEEKHSMEWLVKIQERLQRRVNEGPFTTKWIDLYLEEALRKGIKEVGIVDHLYRFYEAKEYYEKYVDISDSGLGRLQKEWLDQVRVASLHDFTKAIEEAKERWSKRGVTLKLGIEADYFIGGEQQLQSLLALGDFDYVIGSVHFLNGWGFDNPDTKEYFKEHDLYALYDTFFKTVECAVRSELFDIIAHLDNIKVFNYRLDENEQISYYKKIARALVETNTATEINAGLYYRYPVREMCPSPLYLQVLAKHEVPITLSSDAHYPNDLGKYVEENIKTLRNHDIAHLATFTKRVRTMRLLEEVTISK | not soluble
2 | MGSDKIHHHHHHMKVIKFGGSSLASGIQLNKVFQLVAEDSERKIVVVSAPGKRFKDDTKVTDLLIDCAAKALLGEDTSELFEAVIARYAGIALDTGMDDAIITQIRADLQKTISSDKSDPDKFLDRMKASGEDNNAKLIAAYFKFKGLNANYVNPKDAGLFVTDEHASAQVLPESYDRLFALREREGIIVFPGFFGYTKDGEISTFSRSGSDITGAIVANGAQAELYENFTDVDAVYAVNPAIVKNPKKVLELTYREMRELSYAGFSVFHDEALIPAFHAGIPVHIKNTNNPDSCGTRVVHERENNNGPVVGIASDDGFCSIYISKYLMNREIGFGRKVLQILEDAGLNYEHMPSGIDDLTIIIRENQFGEDTERTIMTRLKEELNADQVIMQHGISLIMVVGEAMRHNVGITSRASKALSDAKVNIEMINQGSSEVSIMFGVKEEQENTAVRALYNEFFSEVLV | not soluble
3 | MGSDKIHHHHHHMKVLVVDDDKLARKGLISIMDWKKYGFEVVGDVQNGRKALEFLKDNEVDIVFTDIDMPEIDGIELMKMCKKEYPEVKFVVFSMYEDFRYAQSALRLGALDYISKISFEGDECDRILELVERKYKENHSQKETRNEDSELIKRLEKAWMNTRWIFNDSEFNRLYELTRGVELRTAERVFIKSFHSLQKLTGEELEFPSLSSVDSMLEWVKQWKENLYQTCLQTDKTKDIYMFARVILYTDEHIEENLKSEEAAAQIGMSRSYFSTRFKEMTGDTFHNYVISRKMYAAAQKMAKGTENITQIASNLGYDNFYYFTKVFSKEYGCMPTEYVGRIKKCSI | not soluble
4 | MGSDKIHHHHHHMKVSEFDYELPPELIAQEPVEPRDASRLMVLHRKTQRIEHRIFREIIEYLEPGDLLVLNVSKVIPARLYARKKTGASIEILLIERLEEGIWKCLVRPGQKVKKGTELVIDEDLSAVCLGRGEDGTRILKFQPQDDRLIFEKGRTPLPPYIKNEVPLERYQTVYAKEEGSVAAPTAGLHFTPELIEKLKKKGVQFAEVVLHVGIGTFRPVKVEEVEKHKMHEEFYQVPKETVRKLRETRERGNRIVAVGTTTVRTLETIARLPEQEEYVGKTDLFIYPPFEFKLVDALVTNFHLPRSTLLMLVAAFAGKDFVMEAYREAVKRRYRFFSFGDAMLIL | soluble
5 | MGSDKIHHHHHHMKVTLIGIDLAKNVLQVCGVNQVGKTLFNRTVKRTQLLKTLVQYPDAVIAMEACSGSNYWGRELLSRGFEVKLIPPQHVKPFVKGNKNDRNDAFAICEAAMRPNIIFVKPRTLAQVDIIISHRIRERRIRVRTALTNQIRGLLSEYGIVIPKGRDPLNLALPELLEDADNSLTTTARRYIRELLDELYAINASIKALEKEIRLQARNHEDTKRLTAIRGVAEIIATASVSFAGDGSGYQNGRHFSANLGLVPKEFSSGGKQKLGAITKRGNSYLRRQLIQGAWSVIRYAKNNDDRLSVWARKVIERRGKQKAAVAVANKLARIIWAMLYYKTEYRPS | not soluble
6 | MGSDKIHHHHHHMKVVKFGGSSLASSQQLYKVLNIIKSDYTRRFVVVSAPGKRYEEDLKMTDALIQYYQNYINGKDIVKDQTWIINRYQEIISDLSLGSTIAEEITRSIEQLASLPIENNQFLYDCFLAAGEDNNAKLVATFFNQNDIPARYVHPNEAGIIVTKEPCNARIIPGSYDKIENLCLYNEVLVIPGFFGVTEDNQICTFSRGGSDITGSLIAAGIKADLYENFTDVDGIFAAHPGVVKNPHAIPELTYKEMRELAYAGFSVLHDEALLPAYRGRIPLVIKNTNNPQQPGTKIVLKHTRSNIAVTGIASDSRFASINVSKYLMNREVGFGRKVLQILEDLNISFEHMPTGIDDLSIVLREKELTPIKEQEILNYLTRKLEVDYVDIQHNLSTIVIVGENMKSQIGVTATATQALSREKINITMISQGSSEVSIMFVINSKDEKRAIKALYETFFQK | not soluble
7 | MGSDKIHHHHHHMKYKIHWLYKTKRGLQTDLTTDYMNIEEVLQFAEDFEKTGRVKELLFYDEMDAEWSLKEMKKLSKQVEDEPQEILVYFDGGYDVQTKEAGVGICVYYKKGNKNYRIRRNAYIEGIYDNNEAEYASLLYSMNILEELGIKYEAVTLRGDSQVVLQQLAGEWPCYDEHLNHYLDQIEQKAKQMKLKLVCEPISRKQNKEAHQLATQALEGTVIDSHKEITE | not soluble
8 | MGSDKIHHHHHHMLAYGYQKFGGPTVFEELPQSQLIPTDNQLLIKTLAVNLTEEDRLERLGTIQSVALPHIPGHDVIGKIIQVGAAVTDLDVGTVVAARTNHTYADQVCLDSDLAVTMPTNLDPVTAVSLVTPGIVAYKTVRYFADIQADQTVIVKGAGSPVGLLIIQLAKRLGAHVIAIASDRYANLIATLGVDQFVDYQHQNPVHVLADRGDVVINVAIDGVGGKDDLAMAKFDATIASFARHLPATSKSIRFQAIQPTEVISDQAALQLLFKLLDTGQLTTTINEQLPFNLTGFIQGHQRLDEPHVGQVVVAR | not soluble
9 | MGSDKIHHHHHHMLCSVIQRQTREVSNTMSLDSYYLGFDLSTQQLKCLAINQDLKIVHSETVEFEKDLPHYHTKKGVYIHGDTIECPVAMWLEALDLVLSKYREAKFPLNKVMAVSGSCQQHGSVYWSSQAESLLEQLNKKPEKDLLHYVSSVAFARQTAPNWQDHSTAKQCQEFEECIGGPEKMAQLTGSRAHFRFTGPQILKIAQLEPEAYEKTKTISLVSNFLTSILVGHLVELEEADACGMNLYDIRERKFSDELLHLIDSSSKDKTIRQKLMRAPMKNLIAGTICKYFIEKYGFNTNCKVSPMTGDNLATICSLPLRKNDVLVSLGTSTTVLLVTDKYHPSPNYHLFIHPTLPNHYMGMICYCNGSLARERIRDELNKERENNYEKTNDWTLFNQAVLDDSESSENELGVYFPLGEIVPSVKAINKRVIFNPKTGMIEREVAKFKDKRHDAKNIVESQALSCRVRISPLLSDSNASSQQRLNEDTIVKFDYDESPLRDYLNKRPERTFFVGGASKNDAIVKKFAQVIGATKGNFRLETPNSCALGGCYKAMWSLLYDSNKIAVPFDKFLNDNFPWHVMESISDVDNENWDRYNSKIVPLSELEKTLI | not soluble
10 | MGSDKIHHHHHHMLDDIKKTLWATADKQRANMDAAEYKHIVLGLIFLKYISDTFAGRRAELTRRFADENDEYFLRECDDELLAEELEDRDYYREVNVFWVPETARWESLRSAAKQTDIGKRIDEALAEIEAENPKLKGILDKRYARSQLPDGKLGELVDLISTIGFGEDASHARDVLGQVYEYFLGQFASAEGKKGGQFYTPASIVKTLVAVLAPHHGKVYDPCCGSGGMFVQSEKFIEAHGGKLGDVSIYGQESNPTTWRLAAMNLAIRGIDYNLGREPADTFVRNQHPDLRADFVLANPPFNVSDWWHGSLEGDPRWVYGTPPQGNANYAWLQHMLYHLKPNGRAGIVLANGSMSSSQNSEGDIRRAMVDADVVEVMVALPGQLFFNTQIPACLWFLAKQKTTRKGEVLFIDARKLGSMISRVQTELTDEIIERIANTVAAWRGEAIDGVGEYADVPGYCRSVKLAEIAEHGHVLTPGRYVGAEKVEDDDEAFVEKMQKLTEMLGEQMAKGAELDQLIRQKLGGMGYEF | not soluble
11 | MGSDKIHHHHHHMLDKKTDILLAARKLFSEKDFTSVSMQAIAEECKMSKASIYKLFQSKEDLLLELLSFNQKQMVAAASRLQENTALTPEERLTQKVKMELEGFRRNQQFFNMLTYGNPRLHNDRVKQHIHQTRSTIICWHRDSLIQAYGETILPFVWDLVIILHGMMREFLMLIKIEEKPLELDPIAEFIISTLNQIIKNRETRQSLLPPEAIELYIHSASSYKPKDKSVLLSESLKELHKGISSLSAADYDVDELTSAAAMLEEEAKKEEPRAFLLKSLIGYLEQTGVLTQPVSMLKTLLIT | not soluble
12 | MGSDKIHHHHHHMLDNRIIDELKTIVGADNVATDRQDLICYGYDATQMEFLPDAVVHPGSPDEVSAVLKLANREQFPVYPRGAGSGFTGGALPKGGGIVLVVTRLNRILRIDTENLIAEVEPGVVTEQFQLEVEKLGLFYPPDPASLKFSTLGGNVAENAGGPRCVKYGVTRDFVMGLEVVLPSGEIIRTGGETYKGVVGYDLTRLLCGSEGTLGVITKIIFKLLPLPEAKKTMMTIFDSIDGAAKAVSTIIGNKIIPTTLEFMDHATLQCVEKRFNLGIPASGRAVLIIEVDGDRDLIEKQAARIQELIKPLGLVECKIAKDAAESEALWKVRRLVSPSLRDVNPDKFNEDIVVPRSKVPDVIRVIEKIQQKYAIPIVNFGHAGDGNIHVNIMIDKSVAGQEEKAHEAIAEVFQAALDLNGTMSGEHGVGLAKQPYIHLELKPAQVATMQAIKKALDPNNILNPGKMFPV | not soluble
13 | MGSDKIHHHHHHMLDRIIGTASANNWLFFCLFNNKFSGDIDSQRLLNMFRSVIAALLACLSYSAHAVVILQYHHVSEDTPKVTSVIPAQFREQMSYLRENGFKVKPLTHVVEAIKQGRELADKTVAITFDDGYQNIADTAHPILKEFGYPYTIFISIDPIERKHKNVMSWATLKRLSDEGVTLANHSWGHEHLIRRLHGEDEQTWLTRITENLLATEAEIEAKTGQSVKMLAYPYGEYNTAIETLVQKLGFVGFGQQSGAAGGYSSLTALPRFPVAGAYADLTSLKAKLYSLNMPVLALTPRNTQLPLGQWRPEMQVTLDMADIVASQVMCFVQGQGAMKPSWESEDTFSIQAVTDLPPGRSRYNCTAPSKASGRYYWFSQAWVRPKNDGTWVKE | not soluble
14 | MGSDKIHHHHHHMLEKKARIADEAEIVDEAIVSRRSVRAFLPDMIDDDTIRDILEVAARAPSGTNMQPWRVYVTKGETKQQISDAILNSGIRAEKADWDEYRYYPTQFFEPYLTRRRANGFGLYGALGIGRREVDKMRAQHDRNFVFFDAPVGMIFTIDRRLNQGSWIDYGMFLQNIMVAARGRGLHTCPQAAFAPYHRQIRPVLNIPDEEIVVCGMALGYEDTSKPENAFRTDRVPLEEWVTFSE | not soluble
15 | MGSDKIHHHHHHMLELTDDLRIGHPVIDADHQRLIEIINEFLEHSNEVNPQILHETLKSLLAYGREHFAREEGIQRQCLYPYQQGHSNEHKSLLDQVREIARAYFVAKTKPLNATSVQDVNELLKAWLIGHVKKFDTSMRDWVAPSLDMDAPRIKLASPDLAALIISPNERSRARLADLLSELGASKVLQAEDSITGLGMAFGDPVPDFIFCDLETEPLDGGAFAGALRGSNKAYITRIPLLLLHDAEDAEAIQNAMAAGASGVYPKSFNPTNLGRLLNQLLLR | not soluble
16 | MGSDKIHHHHHHMLEMKATGKSKGQWMFYRNFDDTVDYLSDHTRILSYNPFCHKVEPLDRDEAYRWHFRVTDPQNNPFDVIFNIQQETEILVDLPDEVASMDPEEMSDEMIRQFTVGRKITWRPLAQDKTFTMPEKYLFEGQVTADMLIVPVQQEQTRVDFDLWVNVAFLLYPAFRIVPEKVVRTMVSTGMSLIMQTATNHMFQKISKEFGKIRKL | not soluble
17 | MGSDKIHHHHHHMLEVIDVWKKYPPKTQALREVSFEAEEGSITAVFGENGSGKTTLLKVIASFLIPDRGKVLIDSVNIVEKPSFAVEKVSISTGYERSFYYRLSVEENLKFFGMLNDLLGKTLKRETERVMKELGLLECRKKRYMELSTGYKKRVDVARALMKKASIYIFDEPCSGVDLRTRLKIHEIMKRLKESGRIVIFASHDLEDLKIADRVIVLKKGEKVLEFSPKKEDLAAVLRGILEIQAFPGD | not soluble
